One substance from publication PMC5940917 can be followed below.

Assay [1] addresses rat ASIC1a/2a heteromeric channel stably expressed in CHO cells (rat) (UniProt P55926).
Assay [2] has the same target. This is another data set of the same source.
Assay [3] shares this target. The source holds these as a separate data set.

Sequence of UniProt P55926 (P55926 whole entry, chain 1 of 2): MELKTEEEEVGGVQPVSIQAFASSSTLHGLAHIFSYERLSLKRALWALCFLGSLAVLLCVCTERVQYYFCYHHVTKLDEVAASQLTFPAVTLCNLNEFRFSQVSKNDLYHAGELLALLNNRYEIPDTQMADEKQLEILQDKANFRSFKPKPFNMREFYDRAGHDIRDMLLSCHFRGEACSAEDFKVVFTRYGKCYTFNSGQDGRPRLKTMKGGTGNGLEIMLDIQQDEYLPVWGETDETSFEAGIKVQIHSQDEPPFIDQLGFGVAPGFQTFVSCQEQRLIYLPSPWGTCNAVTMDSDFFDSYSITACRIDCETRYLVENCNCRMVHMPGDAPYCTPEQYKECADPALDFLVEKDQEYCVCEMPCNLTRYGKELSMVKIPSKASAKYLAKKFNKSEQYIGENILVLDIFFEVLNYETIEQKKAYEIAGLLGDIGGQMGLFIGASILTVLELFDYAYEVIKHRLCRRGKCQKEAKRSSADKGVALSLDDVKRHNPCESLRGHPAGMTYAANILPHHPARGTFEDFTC
Sequence of UniProt P55926 (P55926 other isoform, or with tags, fused parts or gaps, chain 2 of 2): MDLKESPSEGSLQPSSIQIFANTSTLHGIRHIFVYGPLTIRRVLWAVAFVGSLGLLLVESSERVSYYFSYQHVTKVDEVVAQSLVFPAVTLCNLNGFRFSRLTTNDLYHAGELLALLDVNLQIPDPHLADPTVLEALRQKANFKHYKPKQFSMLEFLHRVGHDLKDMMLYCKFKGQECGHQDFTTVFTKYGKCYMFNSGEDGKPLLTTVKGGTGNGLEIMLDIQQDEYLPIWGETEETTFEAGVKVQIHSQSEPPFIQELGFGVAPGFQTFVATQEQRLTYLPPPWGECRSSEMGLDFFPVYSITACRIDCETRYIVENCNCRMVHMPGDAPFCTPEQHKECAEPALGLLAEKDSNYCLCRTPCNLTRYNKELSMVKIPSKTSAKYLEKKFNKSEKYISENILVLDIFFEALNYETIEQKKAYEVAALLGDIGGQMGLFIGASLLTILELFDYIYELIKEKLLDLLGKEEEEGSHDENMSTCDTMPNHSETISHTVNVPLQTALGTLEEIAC

On to “Psalmotoxin (PcTx1) (from UniProt P60514 1-40) (peptide)”, for which, in assay [1], the current clamp on CHO cells: potentiation of pH6.8-induced membrane depolarization at conditioning pH 7.4, 1-300 nM PcTx1 stood at 56.1 nM and the whole-cell patch clamp on CHO cells: potentiation of pH6.8-induced current at conditioning pH 7.4, 1-300 nM PcTx1 is 124 nM. The substance also came in with a whole-cell patch clamp on CHO cells: inhibition of pH6.0-induced current at conditioning pH 7.0, 1-300 nM PcTx1 (inhibition incomplete, plateau ~75%) in assay [2] of 2.9 nM. Besides, the threshold concentration of PcTx1 for potentiation of pH6.8-induced responses at conditioning pH 7.4 (wash-off experiments; CHO cells, rat and mouse cortical neurons) in assay [3] is less than 10 nM.
